Results from article PMC11681868, “Unveiling the structural mechanisms behind high affinity and selectivity in phosphorylated epitope-specific rabbit antibodies” (The Journal of Biological Chemistry, 2024).

Target: T1, Akt peptide (synthetic peptide; letters match human …)
T1 construct: Akt peptide around 473-Ser, not phosphorylated; also called non-phosphorylated antigen; non-phosphorylated peptide; source: synthetic peptide (SCRUM Inc.)
T1 chain: RPHFPQFSYSAS
Experiment: ITC; iTC200; 5 μM scFv in the cell, 50 μM peptide in the syringe; samples dialyzed against PBS; triplicate
Details: both partners purified

Kd: 1120 nM
B1: rabbit antibody A4 scFv (wild type) (scFv, V domains shown)
VH: QEQLMESGGRLVTPGTPLTLTCTASGSDISTYSISWVRQAPGKGLEWIGHIGSSGTQYYASWAKGRFAISRASTTVDLRITGPTTEDTATYFCARRGVGYNLYYNMWGPGTLVTVSL
VL: AIDMTQTPSPVSAAVGGTVTINCQASQSVYNSKNLAWYQQKPGQPPKLLIYDSSTLASGVSSRFRGSGSGTQFTLTISGVQSDDAATYYCQGEFSCSSGDCAGFGGGTEVVVE
notes: VH of rabbit antibody A4; they are in PDB 8JOW (A4 scFv); GS linker of the scFv; PDB 8JOW may hold them; VL (kappa) of rabbit antibody A4; they are in PDB 8JOW; the deposited construct should already hold Ser at L80 (Chothia); Antibody numbering is Chothia; also called A4 WT; source: E. coli BL21(DE3), purified (Ni-NTA, SEC)
